According to PMC10897367, “Functional and structural asymmetry suggest a unifying principle for catalysis in membrane-bound pyrophosphatases” (EMBO Reports, 2024):

B1: K+-independent H+-pumping membrane-bound pyrophosphatase from Pyrobaculum aerophilum (PaPPase), wild type (enzyme, UniProt Q8ZWI8 1-721, looked up)
chain: MNMISYALLGVILGISGVIYAVYLAVWVLRQDPGNEKMRFISQAIATGARAYLFRQYRTLAVLLVILAVLILVAIDMPRRTFGLTALAFIVGALGSMLAGYLGMYVTTRSASRVAQAAATGGMGKALLVSWRAGAVMGLSLASIALLLISGFYLVFRSVLPDDWAVPLVALGFGASLVTLFMRVGGGIYTKAADLGADLVGKVEAGIPEDDPRNPGVIADNVGDNVGDVAGMAADVYESYIVTVTAAIFLAAILGLPTQFIEAIILFAALALVATFAGVNLLKTTGVKHPLSSISLAIYATIGLSVVLFFIGAFTLGLDSTKALALAATTSLGAVIAPLIVKITDYYTSYNYGPVRKIAEQAKISPATVIITGYGVGLMSAIPVIAVIVAVLGISYMIGYYTVPVSGFGELSKYLAGIFGTAMASVGLLVVAGIIITADSYGPVSDNAGGVVEMAGLPDEVREITDVLDSVGNTTKATTKGYAIASAALAALVLFIALIFEIVYSASKILGKGIVDMISESLSGLQLINANVLIGAFLGVALVYFFSSRTLEAVGRTAMEIVEEIRRQFREKPGILEWKEQPDYARVVDIATRRALGEFLIPGLAAIVLPLITGLLLGWNALAGLIMGAIVAGVPRALLMANAGGAWDNAKKYIEIQGLKKTEMHKAAVIGDTVGDPMKDTVGPSLNPLIKVLNTLSVVFTYVIVSTNIALGIWPSGLLPF
notes: No tag cleavage is mentioned; also called PaPPase:Mg5IDP; K+-independent H+-PPase; source: S. cerevisiae BJ1991, purified (hot-solve solubilisation, nickel-NTA; DM for crystals)
B2: K+-dependent Na+-pumping membrane-bound pyrophosphatase from Thermotoga maritima (TmPPase), wild type (enzyme, UniProt Q9S5X0 1-726, looked up)
chain: MYVAALFFLIPLVALGFAAANFAAVVRKPEGTERMKEISSYIRSGADSFLAHETKAIFKVAIVIAILLMIFTTWQTGVAFLLGAVMSASAGIVGMKMATRANVRVAEAARTTKKIGPALKVAYQGGSVMGLSVGGFALLGLVLVYLIFGKWMGQVDNLNIYTNWLGINFVPFAMTVSGYALGCSIIAMFDRVGGGVYTKAADMAADLVGKTELNLPEDDPRNPATIADNVGDNVGDVAGLGADLLESFVGAIVSSIILASYMFPIYVQKIGENLVHQVPKETIQALISYPIFFALVGLGCSMLGILYVIVKKPSDNPQRELNISLWTSALLTVVLTAFLTYFYLKDLQGLDVVGFRFGAISPWFSAIIGIFSGILIGFWAEYYTSYRYKPTQFLSKSSIEGTGMVISNGLSLGMKSVFPPTLTLVLGILFADYFAGLYGVAIAALGMLSFVATSVSVDSYGPIADNAGGISEMCELDPEVRKITDHLDAVGNTTAAIGKGFAIGSAIFAALSLFASYMFSQISPSDIGKPPSLVLLLNMLDARVIAGALLGAAITYYFSGYLISAVTKAAMKMVDEIRRQAREIPGLLEGKAKPDYNRCIEITSDNALKQMGYPAFIAILTPLVTGFLLGAEFVGGVLIGTVLSGAMLAILTANSGGAWDNAKKYLEAGNLEGYGKGSEPHKALVIGDTVGDPLKDTVGPSLDILIKIMSVVSVIAVSIFKHVHLF
notes: No tag cleavage is mentioned; also called K+-dependent Na+-PPase; Na+-PPase; source: S. cerevisiae BJ1991, purified (hot-solve solubilisation, nickel-NTA; OGNG)

Columns and labels:
[1] = target: the molecule itself; test: crystal structure; PaPPase in DM with 2 mM IDP, vapour diffusion, 30-33% PEG 400, 0.1 M MES pH 6.5, 0.05 M LiSO4, 0.05 M NaCl, 20 °C; eight datasets combined, molecular replacement with a 5LZQ-based model
[2] = target: the molecule itself; test: crystal structure; time-resolved cryo-trapping: TmPPase in OGNG crystallised with K4PPi and without Na+, soaked in a Na+ trigger solution for 0-3600 s, flash cooled; molecular replacement with 4AV3

Row | Protein | binding result [1] | binding result [2]
1 | B1 | binds | 
2 | B2 |  | binds
